Patent publication US20090060908A1

Target: CD16 (FcγRIII) on human peripheral blood effector cells (human) (UniProt P08637)
Test: cell-based or functional assay

Chain of CD16 (FcγRIII) on human peripheral blood effector cells (human) (P08637 17-254): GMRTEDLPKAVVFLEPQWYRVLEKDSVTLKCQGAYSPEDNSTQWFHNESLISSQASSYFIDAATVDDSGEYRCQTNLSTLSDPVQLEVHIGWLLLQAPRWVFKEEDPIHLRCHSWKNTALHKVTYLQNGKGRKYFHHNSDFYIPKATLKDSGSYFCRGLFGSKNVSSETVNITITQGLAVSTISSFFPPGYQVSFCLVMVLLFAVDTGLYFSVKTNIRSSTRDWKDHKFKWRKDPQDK

% lysis in ADCC by 1 µg/ml 2A10 (fucosylated or defucosylated) with 5 µg/ml anti-CD16 antibody 3G8: < 5%
% lysis in ADCC by 1 µg/ml 7F12 (CHO-derived or chicken-derived) with 5 µg/ml anti-CD16 antibody 3G8: 4%
Substance: anti-CD16 antibody 3G8
